Laboratory results: patent US20260176358A1 (JIANGSU HENGRUI PHARMACEUTICALS, published 2026)
Changes are numbered by the printed parent chain.

T1: rat CGRP (rat, UniProt P01256 83-119)
T1 peptide (looked up): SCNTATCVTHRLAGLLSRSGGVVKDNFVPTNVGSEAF

T2: human CGRP (human, UniProt P06881 83-119)
T2 peptide (looked up): T1 peptide (looked up) with S1A, N3D, D25N, E35K

B1: HJ-3 (bispecific antibody)
chain 1: not shown
chain 2: DIQMTQSPSSVSASVGDRVTITCRASQDIANYLSWYQQKPGKSPKLLIYGTSNLEVGVPSRFSGSRSGTDFTLTISSLQPEDFATYYCLQDKEFPRTFGGGTKVEIKGGGGSSGAPRFLTRPLAFVVSVGKDATLSSQIVGNPTPQVSWEKDKQPVTAGARFRLAQDGDLYRLKILDLQLSDSGQYVSRARNAIGEAFACLGLQVDAEA
chain 3: EVQLVQSGAEVKKPGSSVKVSCKASGYTFSNYLIEWVRQAPGQGLEWIGVIDPGVGDTNYNENFKGRATLTADKSTSTAYIELSSLRSEDTAVYYCAREDNTGTAFDYWGQGTTVTVSSASTKGPSVFPLAPSSKSTSGGTAALGCLVKDYFPEPVTVSWNSGALTSGVHTFPAVLQSSGLYSLSSVVTVPSSSLGTQTYICNVNHKPSNTKVDKKVEPKSCDKTHTCPPCPAPEAAGGPSVFLFPPKPKDTLMISRTPEVTCVVVDVSHEDPEVKFNWYVDGVEVHNAKTKPREEQYNSTYRVVSVLTVLHQDWLNGKEYKCKVSNKALPAPIEKTISKAKGQPREPQVCTLPPSREEMTKNQVSLSCAVKGFYPSDIAVEWESNGQPENNYKTTPPVLDSDGSFFLVSKLTVDKSRWQQGNVFSCSVMHEALHNHYTQKSLSLSPGKDYKDDDDK
chain 4: SIVMTQTPLSLSVTPGQPASISCKASQSVSSDVTWYLQKPGQSPQLLIYYVSEHYTGVPDRFSGSGYGTDFTLKISRVEAEDVGVYYCQQHHRFPLTFGQGTKLEIKRTVAAPSVFIFPPSDEQLKSGTASVVCLLNNFYPREAKVQWKVDNALQSGNSQESVTEQDSKDSTYSLSSTLTLSKADYEKHKVYACEVTHQGLSSPVTKSFNRGEC
B2: HJ-7 (bispecific antibody)
chain 1: not shown
chain 2: B1 chain 2 with L123K, F125S, S137C, T144F, A160V, S188C, I194H
chain 3: EVQLVQSGAEVKKPGSSVKVSCKASGYTFSNYLIEWVRQAPGQGLEWIGVIDPGVGDTNYNENFKGRATLTADKSTSTAYIELSSLRSEDTAVYYCAREDNTGTAFDYWGQGTTVTVSSASTKGPSVFPLAPSSKSTSGGTAALGCLVKDYFPEPVTVSWNSGALTSGVHTFPAVLQSSGLYSLSSVVTVPSSSLGTQTYICNVNHKPSNTKVDKKVEPKSCDKTHTCPPCPAPEAAGGPSVFLFPPKPKDTLMISRTPEVTCVVVDVSHEDPEVKFNWYVDGVEVHNAKTKPREEQYNSTYRVVSVLTVLHQDWLNGKEYKCKVSNKALPAPIEKTISKAKGQPREPQVCTLPPSREEMTKNQVSLSCAVKGFYPSDIAVEWESNGQPENNYKTTPPVLDSDGSFFLVSKLTVDKSRWQQGNVFSCSVMHEALHNHYTQKSLSLSPGK
chain 4: B1 chain 4
B3: HJ-5 (bispecific antibody)
chain 1: not shown
chain 2: B1 chain 2 with L123K, F125S, T144F, A160V, I194H
chain 3: B2 chain 3
chain 4: B1 chain 4
B4: HJ-6 (bispecific antibody)
chain 1: not shown
chain 2: B1 chain 2 with R121C, L123K, F125S, T144F, A160V, I194H
chain 3: B2 chain 3
chain 4: B1 chain 4
B5: HJ-8 (bispecific antibody)
chain 1: not shown
chain 2: B1 chain 2 with G108R, G109T, G110V, G111A, L123K, F125S, T144F, A160V, I194H
chain 3: B2 chain 3
chain 4: B1 chain 4
B6: PL-8 (bispecific antibody)
chain 1: not shown
chain 2: DIVLTQSPASLAVSPGQRATITCRASESVSIHGTHLMHWYQQKPGQPPKLLIYAASKLESGVPARFSGSGSGTDFTLTINPVEAEDTANYYCQQSFEDPLTFGQGTKLEIKGGGGSGIPPKIECLPIDISIDEGKVLTVASAFTGEPTPEVTWSTGGRKIHSQEQGRFHIENTDDSTTLTIKDVQKQDGGLYTLTLRNEFGSDSATVNIHIRSI
chain 3: not shown
chain 4: not shown
B7: PL-18 (bispecific antibody)
chain 1: not shown
chain 2: B6 chain 2 with G112R, G113T, G114V, G115A, V136C
chain 3: not shown
chain 4: not shown
B8: PL-17 (bispecific antibody)
chain 1: not shown
chain 2: B6 chain 2 with G112R, G113T, G114V, G115A
chain 3: not shown
chain 4: not shown
B9: PL-12 (bispecific antibody)
chain 1: not shown
chain 2: B6 chain 2 with G112R, G113T, G114V, G115A, V136C
chain 3: not shown
chain 4: not shown
B10: PL-14 (bispecific antibody)
chain 1: not shown
chain 2: B6 chain 2 with G112R, G113T, G114V, G115A
chain 3: not shown
chain 4: not shown
B11: PL-11 (bispecific antibody)
chain 1: not shown
chain 2: B6 chain 2 with G112R, G113T, G114V, G115A
chain 3: not shown
chain 4: not shown
B12: PL-13 (bispecific antibody)
chain 1: not shown
chain 2: B6 chain 2 with G112R, G113T, G114V, G115A, A142C
chain 3: not shown
chain 4: not shown
B13: PL-19 (bispecific antibody)
chain 1: not shown
chain 2: B6 chain 2 with G112R, G113T, G114V, G115A, A142C
chain 3: not shown
chain 4: not shown
B14: PL-10 (bispecific antibody)
chain 1: not shown
chain 2: B6 chain 2 with A142C
chain 3: not shown
chain 4: not shown
B15: PL-15 (bispecific antibody)
chain 1: not shown
chain 2: B6 chain 2 with G112R, G113T, G114V, G115A, V136C
chain 3: not shown
chain 4: not shown
B16: PL-9 (bispecific antibody)
chain 1: not shown
chain 2: B6 chain 2 with V136C
chain 3: not shown
chain 4: not shown
B17: C9#-CHI (antibody, human IgG1, kappa, V domains shown)
VH: EVQLQQSGPVLVKPGASVKMSCKASGYTFTDYYMNWVKQSLGKSLEWIGVINPYNGRTTYNRKFKGKATLTVDKSSSTAYMELNSLTSEDSAVYYCASLLIRPHYFDYWGQGTTLTVSS
VL: DIVMTQSQKFMATSVGDRVSVTCKASQNVGTNVAWYQQKPGQSPKALIYSASYRYSVVPDRFTGSGSGTDFTLTIRNVQSEDLAEYHCQQYNFYPYTFGAGTKLELKR
notes: chimeric: murine variable regions fused to human constant regions; also called C9#-CH1
B18: C28#-CHI (antibody, human IgG1, kappa, V domains shown)
VH: EVQLQQSGPELVKPGASVKISCEASGYTFTDYYMNWVKQSHGKSLEWIGDINPNNGVTTYNQKFKGKATLTVDKSSSTAYMELRSLTSEDSAVYYCASIIIVPDYFDYWGQGTTLTVSS
VL: B17 VL with Q6H, A12S, T31S, Q38E, V57G, R76S, H87F, F93S, A100G, L106I
notes: chimeric: murine variable regions fused to human constant regions; also called C28#-CH1
B19: C28H2L1 (antibody, human IgG1, kappa, V domains shown)
VH: EVQLVQSGAEVKKPGASVKVSCKASGYTFTDYYMNWVRQAPGQRLEWIGDINPNNVVTTYNQKFKGRATLTVDKSASTAYMELSSLRSEDTAVYYCASIIIVPDYFDYWGQGTTVTVSS
VL: DIQMTQSPSSVSASVGDRVTITCKASQNVGSNVAWYQQKPGKSPKALIYSASYRYSGVPSRFSGSGSGTDFTLTISSLQPEDFATYYCQQYNSYPYTFGGGTKVEIKR
B20: C9H8L1 (antibody, human IgG1, kappa, V domains shown)
VH: B19 VH with D50V, N54Y, N55T, V56G, V57R, Q62R, I99L, I100L, V102R, D104H
VL: B19 VL with V11L, S31T, F83V, Y87H, S93F, G100Q, V104L
B21: C21#-CHI (antibody, human IgG1, kappa, V domains shown)
VH: B18 VH with K19R, E23K, K38R, G42R, V57G, T59N, D104N
VL: DIVMTQSQKFMSTSVGDRVSVTCKASQNVDTNVAWFQQRPGQSPKALIYSASYRYSGVPDRFTGSGSGTDFTLTISNVQSEDLADYFCQQYNNYPYTFGGGTKLEIER
notes: chimeric: murine variable regions fused to human constant regions; also called C21#-CH1
B22: C1#-CHI (antibody, human IgG1, kappa, V domains shown)
VH: QVQLQQSGAELVRPGSSVKISCKASGYTFSTSWMNWVKQRPGQGLEWIGQIYPGDGYTNYNGKFRGKATLTADKSSSTAYMQLSSLTSEDSAVYFCAGDYEALWGQGTTLTVSS
VL: DVVMTQTPLSLPVSLGDQASISCRSSQSLVHSNGNTYFHWYLQRPGQSPKLLIYEVSNRFSGVPDRFSGSGSGTDFTLKISRVEAEDLGVYFCSQSTHVPFTFGSGTKLEIKR
notes: chimeric: murine variable regions fused to human constant regions; also called C1#-CH1
B23: C1H3L1 (antibody, human IgG1, kappa, V domains shown)
VH: EVQLVQSGAEVKKPGSSVKVSCKASGYTFSTSWMNWVRQAPGQGLEWMGQIYPGDGYTNYNVKFRGRVTITADKSTSTAYMELSSLRSEDTAVYYCAGDYEALWGQGTTVTVSS
VL: B22 VL with V2I, S14T, L15P, D17E, Q18P, R44K, K50Q, L88V, F92Y, S105Q

Target: hIL5 (human, UniProt P05113 20-134)
Experiment: method of Test Example 4 of WO2021139758

EC50 [nM]	Binder
17.4	B1
17.7	B2
16	B3
37	B4
18.7	B5

Target: hTSLP (human, UniProt Q969D9 29-159)
Experiment: method of Test Example 4 of WO2021139758

EC50 [nM]	Binder
3.23	B1
2.18	B2
2.64	B3
2.88	B4
3.33	B5

Target: hCTLA4 (human, UniProt P16410 36-161)
Sequence (P16410 36-161 limits assumed): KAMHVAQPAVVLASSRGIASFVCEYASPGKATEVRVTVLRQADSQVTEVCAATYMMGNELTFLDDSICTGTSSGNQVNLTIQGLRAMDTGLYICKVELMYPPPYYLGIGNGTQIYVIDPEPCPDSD
Experiment: ELISA of Test Example 4 of WO2021139758

EC50 [nM]	Binder
14.5	B6
6.7	B7
6.2	B8
8	B9
6	B10
5.6	B11
4.4	B12
6.5	B13
6.9	B14
3.2	B15
5.5	B16

Target: hPDL1 (human, UniProt Q9NZQ7 19-238)
Sequence (Q9NZQ7 19-238 limits assumed): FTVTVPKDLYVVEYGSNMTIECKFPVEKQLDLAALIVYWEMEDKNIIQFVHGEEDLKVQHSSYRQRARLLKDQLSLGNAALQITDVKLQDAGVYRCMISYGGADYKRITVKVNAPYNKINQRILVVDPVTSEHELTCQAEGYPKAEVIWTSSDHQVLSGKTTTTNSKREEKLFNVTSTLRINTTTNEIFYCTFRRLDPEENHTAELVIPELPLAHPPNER
Experiment: ELISA of Test Example 4 of WO2021139758

EC50 [nM]	Binder
1.4	B6
1.6	B7
1.4	B8
0.5	B9
1.3	B10
0.6	B11
0.5	B12
1.6	B13
0.6	B14
1.4	B15
0.6	B16

Target: CGRP
Experiment: cell-based or functional assay

IC50, inhibition of cAMP production in SK-N-MC cells [nM]	Binder
21	B17
1.21	B18
2.55	B19
12.2	B20
1.28	B21
7.96	B22
9.77	B23

Target: T1, rat CGRP
Experiment: ELISA, coated CGRP
Description: (§1) In this test example, the abilities of the chimeric antibodies and humanized antibodies of C1 #, C9 #, C21 #, and C28 #to bind to human CGRP and rat CGRP were assessed using ELISAs. Plates were coated with […] human CGRP and rat CGRP, respectively, and blocked, and the antibodies, serially diluted, were then added. The plates were incubated for 1 h and washed, and a horseradish peroxidase-labeled anti-human Fc secondary antibody was then added. After incubation, color development was performed. […] The plates were incubated for 1 h and washed, and the antibodies, serially diluted, were then added. The plates were incubated for 1 h and washed, and a horseradish peroxidase-labeled streptavidin secondary antibody was then added. After incubation, color development was performed.

EC50 [nM]	Binder
3.11	B17
7.4	B18
4.04	B19
2.8	B20
10.1	B21
1.81	B22
1.95	B23

Target: T2, human CGRP
Experiment: ELISA, coated CGRP
Description: as §1

EC50 [nM]	Binder
1.58	B17
1.29	B18
1.33	B19
1.03	B20
3.79	B21
1.36	B22
1.89	B23
